The chains are these.
B1: LINE1-full (parent)
chain: UACGUAGGUGGUUUUCCCCUGAUAGUGCUAAGGGGGCCUGGAAGUUUGGACUGGGCAGAGCUCAACACAGCGUGGCAAAGUGGCUGUGGCUAGACUGCCUCUCUGGAUUCCUCGUCACUCAGCAGGGCAUCUCUGAGAGAAAUGCC

Variants of B1 are the subject of the data set. The data set is described as follows: self-cleavage, relative activity (ratio to wild type); higher = more cleavage; in vitro, sequencing; the parent is a self-cleaving ribozyme.
On to UACGUAGGUGGUUUUCCCCUGAUAGUGCUAAGGGGGCCUGGAAGUUUGGACGGGGCAGAGCUCAACACAGCGUGGCAAAGUGGCUGUGGCCAGACUGCCUCUCUGGAUUCCUCGUCACUCAGCAGGGCAUCUCUGAGAGAAAUGCC, for which the self-cleavage turned out to be 1.23.

Turning to UACGUAGGUGGUUUUCCCCUGAUAGUGCUAAGGGGGCCUGGAAGUUUGGACGGGGCAGAGCUCAACACAGCGUGGCAAAGUGGCAGUGGCUAGACUGCCUCUCUGGAUUCCUCGUCACUCAGCAGGGCAUCUCUGAGAGAAAUGCC, the self-cleavage turned out to be 0.17.

Consider UACGUAGGUGGUUUUCCCCUGAUAGUGCUAAGGGGGCCUGGAAGUUUGGACGGGGCAGAGCUCAACACAGCGUGGCAAAGUGGCUGUGGCUAGACUGCCUCUCUGGAUUCCUCGUCACACAGCAGGGCAUCUCUGAGAGAAAUGCC, for which the self-cleavage was determined as 0.93.

Turning to UACGUAGGUGGUUUUCCCCUGAUAGUGCUAAGGGGGCCUGGAAGUUUGGACGGGGCAGAGCUCAACACAGCGUGGCAAAGUGGCUGUGGCUAGACUGCCUCUCUGGACUCCUCGUCACUCAGCAGGGCAUCUCUGAGAGAAAUGCC, the self-cleavage came to 1.94.

UACGUAGGUGGUUUUCCCCUGAUAGUGCUAAGGGGGCCUGGAAGUUUGGACUAGGCAGAGCUCAACACAGCGUGGCAAAGUGGCUGUAGCUAGACUGCCUCUCUGGAUUCCUCGUCACUCAGCAGGGCAUCUCUGAGAGAAAUGCC: the self-cleavage was 0.07.

Consider UACGUAGGUGGUUUUCCCCUGAUAGUGCUAAGGGGGCCUGGAAGUUUGGACGGGGCAGAGCUCGACACAGCGUGGCAAAGUGGCUGUGGCUAGACUGCCUCUCUGGAUUCCUCGUCACUCAGCAGGGCAUCUCUGAGAGAAAUGCC, for which the self-cleavage was 0.32.

For the variant UACGUAGGUGGUUUUCCCCUGAUAGUGCUAAGGGGGCCUGGAAGUUUGGACGGGGCAGAGCUCUACACAGCGUGGCAAAGUGGCUGUGGCUAGACUGCCUCUCUGGAUUCCUCGUCACUCAGCAGGGCAUCUCUGAGAGAAAUGCC, the self-cleavage stood at 0.7.

Consider UACGUAGGUGGUUUUCCCCUGAUAGUGCUAAGGGGGCCUGGAAGUUUGGACUAGGCAGAGCUCAACACAGCGUGGCAAAGUGGCUGUGGCUAGACUGCCUCUCUGGAUUCCUCGUCACUCAGCAGGGCAUCUCUGUGAGAAAUGCC, for which the self-cleavage amounted to 1.47.

In the case of UACGUAGGUGGUUUUCCCCUGAUAGUGCUAAGGGGGCCUGGAAGUUUGGACGGGGCAGAGCUCAACACAGCGUGGCAAAGUGGCUGUGGCUAGACUGCCACUCUGGAUUCCUCGUCACUCAGCAGGGCAUCUCUGAGAGAAAUGCC, the self-cleavage is 0.43.

As for UACGUAGGUGGUUUUCCCCUGAUAGUGCUAAGGGGGCCUGGAAGUUUGGACUAGGCAGAGCUCAACACAGCGUGGCAAAGUGGCUGUGGCUAGACUGCCUCUCUGGAUUCCUCGUCACUCAGCAGGGCAUCUCUGAGAGAGAUGCC, the self-cleavage amounted to 1.26.

For UACGUAGGUGGUUUUCCCCUGAUAGUGCUAAGGGGGCCUGGAAGUUUGGACCGGGCAGAGCUCAACACAGCGUGGCAAAGUGGCUGUGGCUAGACUGCCUCUCUGGAUUCCUCGUCACUCAGCAGGGCAUCUCUGAGAGAAAGGCC, the self-cleavage worked out at 1.6.

Take UACGUAGGUGGUUUUCCCCUGAUAGUGCUAAGGGGGCCUGGAAGUUUGGACCGGGCAGAGCUCAACACAGCGUGGCAAAGUGGCUGUGGCUAGACUGCCUCUCUGGAUUCCUCGUCACUCAGCAGGGCAUCUCUGAGAGAAACGCC: the self-cleavage turned out to be 1.67.

UACGUAGGUGGUUUUCCCCUGAUAGUGCUAAGGGGGCCUGGAAGUUUGGACGGGGCAGAGCUCAACACAGCGUGGCAAAGUGGCUGUGGCUAGACUGCCUCUCAGGAUUCCUCGUCACUCAGCAGGGCAUCUCUGAGAGAAAUGCC: the self-cleavage turned out to be 1.

For UACGUAGGUGGUUUUCCCCUGAUAGUGCUAAGGGGGCCUGGAAGUUUGGACUAGGCAGGGCUCAACACAGCGUGGCAAAGUGGCUGUGGCUAGACUGCCUCUCUGGAUUCCUCGUCACUCAGCAGGGCAUCUCUGAGAGAAAUGCC, the self-cleavage was found to be 0.06.

UACGUAGGUGGUUUUCCCCUGAUAGUGCUAAGGGGGCCUGGAAGUUUGGACGGGGCAGAGCUCAACACAGCGUGGCAAAGUGGCUGUGGCUAGACUGCCUUUCUGGAUUCCUCGUCACUCAGCAGGGCAUCUCUGAGAGAAAUGCC: the self-cleavage was determined as 1.55.

Consider UACGUAGGUGGUUUUCCCCUGAUAGUGCUAAGGGGGCCUGGAAGUUUGGACUAGGCAGAGCUCAACACAGCGUGGCAAAGUGGCUGUGGCUAGACUGCCUCUCUGGAUUCCUCGUCACUCAGCUGGGCAUCUCUGAGAGAAAUGCC, for which the self-cleavage turned out to be 1.28.

Regarding UACGUAGGUGGUUUUCCCCUGAUAGUGCUAAGGGGGCCUGGAAGUUUGGACGGGGCAGAGCUCAACGCAGCGUGGCAAAGUGGCUGUGGCUAGACUGCCUCUCUGGAUUCCUCGUCACUCAGCAGGGCAUCUCUGAGAGAAAUGCC, the self-cleavage came to 0.64.

UACGUAGGUGGUUUUCCCCUGAUAGUGCUAAGGGGGCCUGGAAGUUUGGACUAGGCAGAGCUCAACACAGCGUGGCAAAGUGGCUGUGGCUAGACUGCCUCUCUGGAUUCCUCGUCACUCAGCAGGGCAUCUCUGAGGGAAAUGCC: the self-cleavage turned out to be 1.72.

Regarding UACGUAGGUGGUUUUCCCCUGAUAGUGCUAAGGGGGCCUGGAAGUUUGGACGGGGCAGAGCUCAACACAGCAUGGCAAAGUGGCUGUGGCUAGACUGCCUCUCUGGAUUCCUCGUCACUCAGCAGGGCAUCUCUGAGAGAAAUGCC, the self-cleavage was determined as 0.

On to UACGUAGGUGGUUUUCCCCUGAUAGUGCUAAGGGGGCCUGGAAGUUUGGACUAGGCAGAGCUCAACACAGCGUGGCAAGGUGGCUGUGGCUAGACUGCCUCUCUGGAUUCCUCGUCACUCAGCAGGGCAUCUCUGAGAGAAAUGCC, for which the self-cleavage came out at 0.71.

For the variant UACGUAGGUGGUUUUCCCCUGAUAGUGCUAAGGGGGCCUGGAAGUUUGGACGGGGCAGAGCUCAACACAGCGUGGCAAAGUGGCUGUGGCUAGACUGCCUCUCUGGAUUCCUCGUCACUCAGCAGGGCAUCUCUGAGAGAAGUGCC, the self-cleavage turned out to be 0.51.

As to UACGUAGGUGGUUUUCCCCUGAUAGUGCUAAGGGGGCCUGGAAGUUUGGACUAGGCAGAGCUCAACACAGCGUGGCAAAGUGGCUGUGGCUAGACUGCCUCUCUGGAUUCCUCGUCACUCAGCAGGGCAUCUCUGAGAGAAGUGCC, the self-cleavage came out at 1.3.

For UACGUAGGUGGUUUUCCCCUGAUAGUGCUAAGGGGGCCUGGAAGUUUGGACGGGGCAGAGCUCAACACAGCGUGGCAAAGUGGCUGUGGCUAGACUGCCUCUCUGGAUUCCUCGUCACUCAGCAGGGCAUCCCUGAGAGAAAUGCC, the self-cleavage turned out to be 1.42.

As for UACGUAGGUGGUUUUCCCCUGAUAGUGCUAAGGGGGCCUGGAAGUUUGGACUAGGCAGAGCUCAACACAGCGUGGCAAAGUGGCUGUGGCUAGACUGCCUCUCUGGAUUCCUCGUCACUCUGCAGGGCAUCUCUGAGAGAAAUGCC, the self-cleavage was 1.7.

For the variant UACGUAGGUGGUUUUCCCCUGAUAGUGCUAAGGGGGCCUGGAAGUUUGGACGGGGCAGAGCUCAACACAGCGUGGCAAAGUGGCUGUGGCUAGACUGCCUCUCUGGAUUCCUCGUCACUCAGCAGGGCAUCUCUGAGAGAGAUGCC, the self-cleavage came to 1.72.

With UACGUAGGUGGUUUUCCCCUGAUAGUGCUAAGGGGGCCUGGAAGUUUGGACGGGGCAGAGCUCAACACAGCGUGGCAAAGUGGCUGUGGCUAGACUGCCUCUCUGGAUUCCACGUCACUCAGCAGGGCAUCUCUGAGAGAAAUGCC, the self-cleavage is 0.56.

In the case of UACGUAGGUGGUUUUCCCCUGAUAGUGCUAAGGGGGCCUGGAAGUUUGGACGGGGCAGAGCUCAACACAGCGUGGCAAAGUGGCUGUGGCUAGACUGCCUCUCUGGAUUCCCCGUCACUCAGCAGGGCAUCUCUGAGAGAAAUGCC, the self-cleavage amounted to 0.99.

As to UACGUAGGUGGUUUUCCCCUGAUAGUGCUAAGGGGGCCUGGAAGUUUGGACGGGGCAGAGCUCAACACAGCGUGGCAAAGUGGCUGCGGCUAGACUGCCUCUCUGGAUUCCUCGUCACUCAGCAGGGCAUCUCUGAGAGAAAUGCC, the self-cleavage amounted to 0.69.

On to UACGUAGGUGGUUUUCCCCUGAUAGUGCUAAGGGGGCCUGGAAGUUUGGACGGGGCAGAGCUCAACACAGCGUGGCAAAGUGGCUGUGGCUAGACUGCCUCUCUGGAUUCCUCGUCACUCAGCGGGGCAUCUCUGAGAGAAAUGCC, for which the self-cleavage is 1.57.

On to UACGUAGGUGGUUUUCCCCUGAUAGUGCUAAGGGGGCCUGGAAGUUUGGACUAGGCAGAGCUCAACACAGCGUGGCAAAGUGGCUGUGGCUAGACUGCCUCUAUGGAUUCCUCGUCACUCAGCAGGGCAUCUCUGAGAGAAAUGCC, for which the self-cleavage was found to be 1.43.

As for UACGUAGGUGGUUUUCCCCUGAUAGUGCUAAGGGGGCCUGGAAGUUUGGACGGGGCAGAGCUCAACACAGCGUGGCAAAGUGGCUGUGGCUAGACUGCCUCUCUGGAUUGCUCGUCACUCAGCAGGGCAUCUCUGAGAGAAAUGCC, the self-cleavage worked out at 1.31.

UACGUAGGUGGUUUUCCCCUGAUAGUGCUAAGGGGGCCUGGAAGUUUGGACUAGGCAGAGCUCAACACAGCGUGGCAAAGUGGCUGUGGCUAGACUGCCUCUCUGGAUUCCUCGUCGCUCAGCAGGGCAUCUCUGAGAGAAAUGCC: the self-cleavage amounted to 2.04.

For UACGUAGGUGGUUUUCCCCUGAUAGUGCUAAGGGGGCCUGGAAGUUUGGACUAGGCAGAGCUCAACACAGCGUGGCAAAGUGGCUGUGGCUAGACUGCCUCUCUGGAUUCCUCGUCACUCAGCAGGGCAUCUCUGAGAGAAAUGCU, the self-cleavage is 1.31.

With UACGUAGGUGGUUUUCCCCUGAUAGUGCUAAGGGGGCCUGGAAGUUUGGACGGGGCAGAGCUCAACACAGCGUGGCAAAGUGGCUGUGGCUAGACUGCCUCUCUGGAUACCUCGUCACUCAGCAGGGCAUCUCUGAGAGAAAUGCC, the self-cleavage was 2.14.

Turning to UACGUAGGUGGUUUUCCCCUGAUAGUGCUAAGGGGGCCUGGAAGUUUGGACGGGGCAAAGCUCAACACAGCGUGGCAAAGUGGCUGUGGCUAGACUGCCUCUCUGGAUUCCUCGUCACUCAGCAGGGCAUCUCUGAGAGAAAUGCC, the self-cleavage came out at 0.09.

On to UACGUAGGUGGUUUUCCCCUGAUAGUGCUAAGGGGGCCUGGAAGUUUGGACGGGGCAGAGCCCAACACAGCGUGGCAAAGUGGCUGUGGCUAGACUGCCUCUCUGGAUUCCUCGUCACUCAGCAGGGCAUCUCUGAGAGAAAUGCC, for which the self-cleavage came to 0.09.

For the variant UACGUAGGUGGUUUUCCCCUGAUAGUGCUAAGGGGGCCUGGAAGUUUGGACGGGGCAGAGCUCAACACAGCGUGGCAAAGUGGCUGUGGCUAGACUGCCUCUCUGGAUUCCUCGUCACUCAGCAGGGCAUCUCUGAGAGGAAUGCC, the self-cleavage turned out to be 1.81.

Take UACGUAGGUGGUUUUCCCCUGAUAGUGCUAAGGGGGCCUGGAAGUUUGGACCGGGCAGAGCUCAACACAGCGUGGCAAAGUGGCUGUGGCUAGACUGCCUCUCUGGAUUCCUCGUCACUCAGCAGGGCAUCUCAGAGAGAAAUGCC: the self-cleavage turned out to be 1.07.

As to UACGUAGGUGGUUUUCCCCUGAUAGUGCUAAGGGGGCCUGGAAGUUUGGACUAGGCAGAGCUCAACACAGCGUAGCAAAGUGGCUGUGGCUAGACUGCCUCUCUGGAUUCCUCGUCACUCAGCAGGGCAUCUCUGAGAGAAAUGCC, the self-cleavage was 1.04.

The record behind these values is the RNAGym collection of RNA variant scans (doi:10.7554/elife.90254).
